Relative affinity data for 15 molecules are collected here from patent US20180086804A1 (COMMISSARIAT A L ENERGIE ATOMIQUE ET AUX ENERGIES …, published 2018).

Where two headings read alike, the source gives them in different places. No end group written: not given here.

In assay [1] the target is T1, HLA-DR7 (HLA-DRB1*07:01) (human).
T1 construct: mature; purified from homozygous EBV-transformed lymphoblastoid cells with antibody L243
The assay can be described thus: competition ELISA vs biotin-YKL. In general terms: In an ELISA, binding on a coated surface is turned into a signal by an enzyme label.

For assay [2], the target named is T2, HLA-DRB4 (HLA-DRB4*01:01) (human).
T2 construct: mature; purified from homozygous EBV-transformed lymphoblastoid cells with antibody L243
The assay can be described thus: competition ELISA vs biotin-E2/E168.

The target in assay [3] is T3, HLA-DR13 (HLA-DRB1*13:01) (human).
T3 construct: mature; purified from homozygous EBV-transformed lymphoblastoid cells with antibody L243
The assay can be described thus: competition ELISA vs biotin-B1 21-36.

Assay [4] deals with T4, HLA-DR15 (HLA-DRB1*15:01) (human).
T4 construct: mature; purified from homozygous EBV-transformed lymphoblastoid cells with antibody L243
The assay can be described thus: competition ELISA vs biotin-A3 152-166.

In assay [5] the target is T5, HLA-DRB5 (HLA-DRB5*01:01) (human).
T5 construct: mature; purified from homozygous EBV-transformed lymphoblastoid cells with antibody L243
The assay can be described thus: competition ELISA vs biotin-HA 306-318.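 Also: HLA and competitor incubated 24 to 72 h, maximal signal taken from wells lacking competitor, background from wells lacking HLA molecule.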

Assay [6] deals with T6, HLA-DR4 (HLA-DRB1*04:01) (human).
T6 construct: mature; purified from homozygous EBV-transformed lymphoblastoid cells with antibody L243
The assay can be described thus: competition ELISA vs biotin-HA 306-318.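 Also: HLA and competitor incubated 24 to 72 h, maximal signal taken from wells lacking competitor, background from wells lacking HLA molecule.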

Assay [7] concerns the target T7, HLA-DR11 (HLA-DRB1*11:01) (human).
T7 construct: mature; purified from homozygous EBV-transformed lymphoblastoid cells with antibody L243
The assay can be described thus: competition ELISA vs biotin-HA 306-318.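 Also: HLA and competitor incubated 24 to 72 h, maximal signal taken from wells lacking competitor, background from wells lacking HLA molecule.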

Assay [8] addresses T8, HLA-DP401 (HLA-DPB1*04:01) (human, UniProt P20036 29-222).
T8 construct: mature; purified from homozygous EBV-transformed lymphoblastoid cells with antibody B7/21
The assay can be described thus: competition ELISA vs biotin-Oxy 271-287.

For assay [9], the target named is T9, HLA-DP402 (HLA-DPB1*04:02) (human, UniProt P20036 29-222).
T9 construct: mature; purified from homozygous EBV-transformed lymphoblastoid cells with antibody B7/21
The assay can be described thus: competition ELISA vs biotin-Oxy 271-287.

Assay [10] deals with T1, HLA-DR7 (HLA-DRB1*07:01). The assay can be described thus: competition ELISA vs biotin-YKL. This is another data set of the same source.
The target of assay [11] is T10, HLA-DR3 (HLA-DRB1*03:01) (human).
T10 construct: mature; purified from homozygous EBV-transformed lymphoblastoid cells with antibody L243
The assay can be described thus: competition ELISA vs biotin-MT 2-16.

Assay [12] concerns the target T3, HLA-DR13 (HLA-DRB1*13:01). The assay can be described thus: competition ELISA vs biotin-B1 21-36. This is another data set of the same source.
For assay [13], the target named is T4, HLA-DR15 (HLA-DRB1*15:01). The assay can be described thus: competition ELISA vs biotin-A3 152-166. The source holds these as a separate data set.
Assay [14] deals with T11, HLA-DR1 (HLA-DRB1*01:01) (human).
T11 construct: mature; class II HLA molecule purified from homozygous EBV-transformed lymphoblastoid cells with antibody L243
The assay can be described thus: competition ELISA vs biotin-HA 306-318.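 Also: HLA and competitor incubated 24 to 72 h, maximal signal taken from wells lacking competitor, background from wells lacking HLA molecule.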

Assay [15] concerns the target T5, HLA-DRB5 (HLA-DRB5*01:01). The assay can be described thus: competition ELISA vs biotin-HA 306-318. The source holds these as a separate data set.
Assay [16] has as its target T6, HLA-DR4 (HLA-DRB1*04:01). The assay can be described thus: competition ELISA vs biotin-HA 306-318. This is another data set of the same source.
For assay [17], the target named is T7, HLA-DR11 (HLA-DRB1*11:01). The assay can be described thus: competition ELISA vs biotin-HA 306-318. This is another data set of the same source.
The target in assay [18] is T12, HLA-DRB3 (HLA-DRB3*01:01) (human).
T12 construct: mature; purified from homozygous EBV-transformed lymphoblastoid cells with antibody L243
The assay can be described thus: competition ELISA vs biotin-LOL 191-210.

The target of assay [19] is T8, HLA-DP401 (HLA-DPB1*04:01). The assay can be described thus: competition ELISA vs biotin-Oxy 271-287. This is another data set of the same source.
In assay [20] the target is T9, HLA-DP402 (HLA-DPB1*04:02). The assay can be described thus: competition ELISA vs biotin-Oxy 271-287. The source holds these as a separate data set.
For assay [21], the target named is T2, HLA-DRB4 (HLA-DRB4*01:01). The assay can be described thus: competition ELISA vs biotin-E2/E168. This is another data set of the same source.
For assay [22], the target named is T10, HLA-DR3 (HLA-DRB1*03:01). The assay can be described thus: competition ELISA vs biotin-MT 2-16. This is another data set of the same source.
For assay [23], the target named is T11, HLA-DR1 (HLA-DRB1*01:01). The assay can be described thus: competition ELISA vs biotin-HA 306-318. This is another data set of the same source.
In assay [24] the target is T12, HLA-DRB3 (HLA-DRB3*01:01). The assay can be described thus: competition ELISA vs biotin-LOL 191-210. This is another data set of the same source.

NTYTKHQIRQMEMKI-NH2 [CCNB1 275-289]: the relative affinity with HLA-DR7 (HLA-DRB1*07:01) [1] was 43; in assay [2], 80; in assay [3], 158; in assay [4] it was 85; in [5], 50; with HLA-DR4 (HLA-DRB1*04:01) [6] it was 456. Moreover, in [7], the relative affinity is 4.
In the case of KKLPKPLEKVPMLVP-NH2 [CCNB1 77-91], the relative affinity turned out to be 75 in assay [2], 1630 in [7], 212 in assay [8] and 474 in assay [9].
In the case of TAMFIASKYEEMYPP-NH2 [CCNB1 250-264], the relative affinity with HLA-DR7 (HLA-DRB1*07:01) [10] was found to be 4; with HLA-DR3 (HLA-DRB1*03:01) [11], 4; in assay [12], 3; in assay [13], 9; with HLA-DR1 (HLA-DRB1*01:01) [14] it was 22; in assay [15], 82. In addition, the relative affinity is 70 with HLA-DR4 (HLA-DRB1*04:01) [16]; 6 in [17]; 34 in [18]; 0.1 in assay [19]; 1 in [20].
With RPLPLHFLRRASKIG-NH2 [CCNB1 299-313], the relative affinity in the assay with HLA-DR7 (HLA-DRB1*07:01) [10] is 35; in assay [21] it was 13; in assay [12], 0.2; in assay [13], 200; in the assay with HLA-DR1 (HLA-DRB1*01:01) [14], 63; in assay [15] it was 26. The figures for the relative affinity (with HLA-DR4 (HLA-DRB1*04:01) [16]; in assay [17]) were 624 and 0.1, respectively.
For the molecule ETMYMTVSIIDRFMQ-NH2 [CCNB1 221-235], the relative affinity with HLA-DR7 (HLA-DRB1*07:01) [10] worked out at 1; in assay [21] it was 7; in the assay with HLA-DR3 (HLA-DRB1*03:01) [11], 0.5; in [12], 59; in assay [13] it was 0.3; with HLA-DR1 (HLA-DRB1*01:01) [14], 89. The relative affinity in [15] turned out to be 1; with HLA-DR4 (HLA-DRB1*04:01) [16], 37; in [17], 1; in [18] it was 22; in assay [19], 59; in assay [20] it was 68.
For the molecule SEYVKDIYAYLRQLE-NH2 [CCNB1 168-182], the relative affinity with HLA-DR7 (HLA-DRB1*07:01) [10] is 346; with HLA-DR3 (HLA-DRB1*03:01) [11] it was 97; in [12], 12; in assay [13], 12; with HLA-DR1 (HLA-DRB1*01:01) [14], 22; in assay [15] it was 3. Moreover, the results for the relative affinity in [17], in assay [18] and in assay [20] were 3, 30 and 127, respectively.
As for GDFAFVTDNTYTKHQ-NH2 [CCNB1 267-281], the relative affinity in the assay with HLA-DR7 (HLA-DRB1*07:01) [10] worked out at 22; with HLA-DR3 (HLA-DRB1*03:01) [11], 0.2; in assay [12], 62; in assay [13], 86; in the assay with HLA-DR1 (HLA-DRB1*01:01) [14], 1500; in [15], 24. Besides, the relative affinity with HLA-DR4 (HLA-DRB1*04:01) [16] is 1; in assay [17], 1330; in [18], 38.
DWLVQVQMKFRLLQE-NH2 [CCNB1 207-221]: the relative affinity in the assay with HLA-DR7 (HLA-DRB1*07:01) [10] is 7; in assay [21] it was 49; with HLA-DR3 (HLA-DRB1*03:01) [11] it was 0.5; in [12], 1; in assay [13] it was 7; in the assay with HLA-DR1 (HLA-DRB1*01:01) [14] it was 38. The relative affinity in [15] is 5; in assay [17] it was 0.4; in assay [18], 160; in assay [20] it was 171.
For the molecule VQMKFRLLQETMYMT-NH2 [CCNB1 212-226], the relative affinity was 40 with HLA-DR7 (HLA-DRB1*07:01) [10]; 683 in [21]; 1 in the assay with HLA-DR3 (HLA-DRB1*03:01) [11]; 1 in assay [12]; 46 in assay [13]; 1 with HLA-DR1 (HLA-DRB1*01:01) [14]. The relative affinity in assay [15] amounted to 2; in the assay with HLA-DR4 (HLA-DRB1*04:01) [16], 2; in assay [17], 5; in [18] it was 34; in assay [19], 110; in assay [20], 9.
With MELTMLDYDMVHFPP-NH2 [CCNB1 327-341], the relative affinity in [2] came out at 139; in the assay with HLA-DR3 (HLA-DRB1*03:01) [22] it was 32; in assay [4], 10; in the assay with HLA-DR1 (HLA-DRB1*01:01) [23], 418; with HLA-DR4 (HLA-DRB1*04:01) [6], 22; in [7] it was 216. The relative affinity in assay [8] was 2; in [9], 47.
In the case of LALKILDNGEWTPTL-NH2 [CCNB1 351-365], the relative affinity came to 624 with HLA-DR7 (HLA-DRB1*07:01) [1]; 52 in assay [4]; 648 with HLA-DR1 (HLA-DRB1*01:01) [23]; 3060 in assay [5]; 1000 in the assay with HLA-DR4 (HLA-DRB1*04:01) [6]; 2330 in assay [7]. Moreover, the relative affinity in [9] came out at 510.
As for PEIGDFAFVTDNTYT-NH2 [CCNB1 264-278], the relative affinity in the assay with HLA-DR7 (HLA-DRB1*07:01) [1] came out at 86; with HLA-DR3 (HLA-DRB1*03:01) [22], 85; in assay [4], 300; in the assay with HLA-DR1 (HLA-DRB1*01:01) [23] it was 7000; in [5] it was 61; in the assay with HLA-DR4 (HLA-DRB1*04:01) [6], 2. The relative affinity in assay [7] came out at 1670; in [24], 19.
With PMLVPVPVSEPVPEP-NH2 [CCNB1 87-101], the relative affinity in the assay with HLA-DR7 (HLA-DRB1*07:01) [1] was determined as 231; in assay [2], 748; in [4] it was 134; with HLA-DR1 (HLA-DRB1*01:01) [23], 1500; with HLA-DR4 (HLA-DRB1*04:01) [6], 96.
Take H-KNVVMVNQGLTKHMT-NH2 (not fully specified) [CCNB1 385-399]: the relative affinity is 228 in the assay with HLA-DR3 (HLA-DRB1*03:01) [22]; 37 in assay [3]; 0.02 in assay [4]; 4500 in the assay with HLA-DR1 (HLA-DRB1*01:01) [23]; 52 in assay [5]; 986 with HLA-DR4 (HLA-DRB1*04:01) [6]. In addition, the relative affinity in assay [7] stood at 766; in [8], 116; in [9] it was 2.
For NCVPKKMLQLVGVTA-NH2 [CCNB1 237-251], the relative affinity is 1400 in assay [2], 65 in [4], 4 with HLA-DR1 (HLA-DRB1*01:01) [23] and 87 in assay [7].
